Experimental data from publication PMC8280513, “Marmoset glutathione transferases with ketosteroid isomerase activity” (Biochemistry and Biophysics Reports, 2021).

T1: CjaGST A1-1 (Callithrix jacchus, UniProt A0A7G0XAM3)
T1 construct: gene GSTA1; 222 amino acid residues, N-terminal hexahistidine tag
T1 sequence (A0A7G0XAM3 1-222): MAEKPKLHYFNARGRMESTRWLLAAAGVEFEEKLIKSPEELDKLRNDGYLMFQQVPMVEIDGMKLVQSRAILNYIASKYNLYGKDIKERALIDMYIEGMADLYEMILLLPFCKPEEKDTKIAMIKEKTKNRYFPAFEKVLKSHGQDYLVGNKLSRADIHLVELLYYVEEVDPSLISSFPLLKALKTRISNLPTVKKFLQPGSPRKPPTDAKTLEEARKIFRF

B1: CjaGST A1-1 (Callithrix jacchus) (protein)
chain: MAEKPKLHYFNARGRMESTRWLLAAAGVEFEEKLIKSPEELDKLRNDGYLMFQQVPMVEIDGMKLVQSRAILNYIASKYNLYGKDIKERALIDMYIEGMADLYEMILLLPFCKPEEKDTKIAMIKEKTKNRYFPAFEKVLKSHGQDYLVGNKLSRADIHLVELLYYVEEVDPSLISSFPLLKALKTRISNLPTVKKFLQPGSPRKPPTDAKTLEEARKIFRF

Legend:
CjaGST A1-1 = molecular target: T1, CjaGST A1-1; assay: specific activity, spectrophotometric assay; assay type: biochemical
purified protein = substrate: [H][C@@]12CC=C3CC(=O)CC[C@]3(C)[C@@]1([H])CC[C@]1(C)C(=O)CC[C@@]21[H]; assay: purified protein; conditions: glutathione H-site; Phe111 suggested to hinder steroid binding

Molecule | specific activity (CjaGST A1-1) [µmol/min/mg] | Km (purified protein) [µM] | kcat (purified protein) [s⁻¹] | kcat/Km (purified protein) [M⁻¹ s⁻¹]
O=[N+]([O-])c1ccc(Cl)c([N+](=O)[O-])c1 [CDNB, 1-chloro-2,4-dinitrobenzene] | 26.1 ± 0.59 | – | – | –
S=C=NCCc1ccccc1 [PEITC, phenethyl isothiocyanate] | 8.80 ± 1.95 | – | – | –
B1 | – | 303 ± 34 | 6.89 ± 0.79 | 22700
